Data set [1] has as its system PS-coated liposomes (DOPC/ DOPS (3:1,v/v)). Kind of data set: Biacore SPR binding assay with PS-containing liposomes. The settings on record: for dissociation koff: zinc-coordinated, DOPC/DOPS (3:1) liposomes, 25 °C, DOPC reference. As for the experimental part:
Phospholipids, 1,2-dioleoyl-sn-glycero-3-phosphocholine (DOPC), and 1,2-dioleoyl-sn-glycero-3-[phospho-L-serine] (DOPS) were obtained from Avanti Polar Lipids (Alabaster, AL) in chloroform solutions. These stock solutions were combined to the indicated ratios. To a round-bottom flask, a 0.4 mL aliquot of lipid solution at concentration of 10 mg/mL was added and evaporated under a N2 gas stream to furnish a thin lipid film. Rehydration of lipid films was carried out in PBS buffer for at least 1 h at room temperature. Resulting suspensions were extruded through a 100 nm polycarbonate filter using an Avanti MiniExtruder following the manufacturer’s instructions. Zeta potential (ZP) and liposomes’ size distributions were recorded by dynamic light scattering (DLS) and microelectrophoresis using a Zetasizer Nano ZS instrument. Then, using a Biacore T200 biosensor equipped with an L1 sensor chip (GE Healthcare), binding kinetics between the conjugates and liposome were recorded at 25 °C. Preconditioning of new sensor chips was performed with running buffer (5% DMSO in phosphate-buffered saline (PBS) with final pH 7.4) and two consecutive 30 s pulses of 2:3 v/v 50 mM HCl/isopropanol at a flow rate of 30 μL/min. A fresh liposome capture plate was prepared for each binding cycle. In PBS buffer, liposomes were diluted to 0.5–1 mM and captured to saturation (30–150 s) across isolated flow cells at 2–5 μL/min. In a single injection, conjugates were first diluted with running buffer and injected over lipid surfaces. At flow rate of 30 μL/min, association and dissociation phases were examined for 60s. At the end of each binding cycle, the surface was regenerated by injecting 2:3 v/v 50 mM HCl/isopropanol and equilibrated with running buffer before the next injection of the test compound. […]
Figure S3. […] Zinc-coordinated dipicolylamine 24 and modified analog 11 were analyzed across a two-fold concentration series descending from 31.3 μM. The association was monitored for 1 min, and the dissociation time was 1 min. […]
In general terms: SPR reads the build-up and loss of mass on a sensor chip optically.

A short description of data set [2]: Plasma incubation and tumor homogenate cleavage of conjugate. Type of data set: in vitro ADME. The settings on record: glutathione transferase inhibitor added to tumor homogenate. The source says: Figure 3 In vivo targeting ability, plasma stability, and in vivo biodistribution of modified zinc dipicolylamine conjugates in subcutaneous HCC1806 tumor xenografts. […] (B) In vivo detection of PS-expression in the HCC1806 tumor xenograft model. Representative IVIS images of new Zn11-794 fluorescence probe in mice.

Data set [3] is described as follows: Single intravenous dose pharmacokinetic study. The settings on record: male ICR mice; for AUC(0-24 hr) Conjugate: intact conjugate; for AUC(0-24 hr) Conjugate / CL / Vss: 5 mg/kg intravenous; for CL / Vss: n = 3; for AUC(0-24 hr) Drug: released payload 14, 5 mg/kg intravenous of conjugate. As for the experimental part:
Six-week-old male ICR mice, from the Biolasco Taiwan, were divided into groups of three and dosed at 5 mg/kg intravenously. Blood samples were drawn from each animal at time points of 0.003, 0.083, 0.25, 0.5, 1, 2, 4, 6, 8, and 24 h and stored on ice (0–4 °C). With centrifugation (3000 rpm for 15 min at 4 °C in a Beckman Model Allegra 6R centrifuge), plasma was separated from the blood and stored in frozen conditions (−20 °C). […] The mice were sacrificed, and the blood samples of 0.5 mL each and tumor samples were collected at 0.5, 2, 6, 24, 72, and 168 h after administration. Each time point group included 4 mice. Mouse blood samples were collected in EDTA tubes and centrifuged at 13,000 rpm for 5 min at 4°C for plasma collection. Plasma and the harvested tumor samples were stored at −80°C until use. Fifty microliters of mouse plasma or the sample of tumor homogenated in ddH2O with dilution ratio of 1:3 (w/v) by MiniBeadbeater-16 (BioSpec Products Inc., OK, USA) was mixed with 100 μL of acetonitrile containing 250 ng/mL BPR0L187. The mixture was vortexed for 30 s and then centrifuged at 15000g for 20 min. The supernatant was transferred to a clean tube, and 15 μL of the supernatant was injected onto LC/MS/MS. Plasma samples were analyzed by liquid chromatography tandem mass spectrometry (LC/MS/MS). The chromatographic system Agilent 1200 series LC system and an Agilent ZORBAX Eclipse XDB-C8 column (5 μm, 3.0 × 150 mm) interfaced to an MDS Sciex API4000 tandem mass spectrometer equipped with an ESI in the positive scanning mode at 600 °C was used. Data acquisition was collected via multiple reactions monitoring (MRM). A gradient system was employed for the separation of analyte and IS. Mobile phase A was 10 mM ammonium acetate aqueous solution containing 0.1% formic acid. Mobile phase B was acetonitrile. The gradient profile was as follows: 0.0–1.1 min, 50% B; 1.2–3.7 min, 55%B–90%B; 3.8–5.0 min, 90%B–50%B. The flow rate was 1.5 mL/min. The autosampler was programmed to inject 15 μL of the sample every 5 min.

Data set [4] relates to MIA PaCa-2 human xenografts. Kind of data set: MIA PaCa-2 xenograft antitumor efficacy. Particulars: MIA PaCa-2 xenograft, 2 mg/kg intravenous (Figure S4). As for the experimental part: Cancer cells, suspending in phenol red free medium/DPBS, were mixed with Matrigel (356237, BD Biosciences, San Jose CA, USA) in a 1:1 ratio. Human pancreatic cancer MIA PaCa-2 (1 × 10^6 cells) or triple-negative breast cancer HCC1806 (1 × 10^6cells) cells were subcutaneously inoculated to left flanks of male nude mice 6 weeks old (Biolasco, Taiwan) or female nude mice 6 weeks old by using a 1 mL syringe (needle 24G × 1 in., 0.55 × 25 mm; TERUMO). Tumor dimensions were measured twice a week with an electronic caliper (FOW54-200-777, PRO-MAX, Newton, Massachusetts, USA), and the volume of the subcutaneously growing tumor in mm^3 was calculated by the following formula: volume = (length × width[2])/2. Conjugates were formulated 10% DMA/20% Cremophor EL/70% injectable solution of 5% dextrose (D5W) for treating MIA PaCa-2 and HCC1806 xenograft tumors. […] Body weight of the mice and tumor volume were measured twice weekly.

Data set [5] deals with MIA PaCa-2 human pancreatic cells. Kind of data set: MTS cell viability assay, MIA PaCa-2. Particulars: 72 h incubation, read-out: MIA PaCa2 IC50. Type of data set: cell-based. As for the experimental part: (§1) The MTS assay was performed to examine cell viability.
On the technique in general: Tetrazolium dyes change colour on reduction, which living cells bring about.

Data set [6] concerns HCC 1806 human triple-negative breast cancer cell. Kind of data set: MTS cell viability assay, HCC1806. The class given is cell-based. Particulars: 72 h incubation. As for the experimental part: as §1
The test system of data set [7] is Detroit 551 normal skin fibroblast. Kind of data set: MTS cell viability assay, Detroit 551. The class given is cell-based. Particulars: Homo sapiens, 72 h incubation. As for the experimental part: as §1

One may read the Vss as the apparent volume that relates the amount in the body to the concentration in plasma or blood. A word on the IC50: it is the midpoint of a concentration-inhibition curve.

As to `CCCCCC(=O)Nc1cccc(CN(Cc2cc(CN(Cc3ccccn3)Cc3cccc(NC(=O)CCCCC)n3)cc(OCCCCN)c2)Cc2ccccn2)n1` [Compound 11], in data set [1] (PS-containing liposomes), the “improvement of dissociation koff over compound 24” value is 3 fold. In data set [1], this molecule displayed a dissociation koff of 0.00358 s^–1.

As to `NCCCCOc1cc(CN(Cc2ccccn2)Cc2ccccn2)cc(CN(Cc2ccccn2)Cc2ccccn2)c1` [Compound 24, reference compound], the dissociation koff in data set [1] came out at 0.0113 s^–1.

With `C=C(CC)C(=O)c1ccc(OCC(=O)O)c(Cl)c1Cl` [ethacrynic acid, reference compound], the “effect on abundance of intact conjugate 40a in tumor homogenate” value in data set [2] is “significantly rescued”.

For the molecule `COc1cc2cc(c1Cl)N(C)C(=O)C[C@H](OC(=O)[C@H](C)N(C)C(=O)CCSSc1ccc(C(=O)NCCCCOc3cc(CN(Cc4ccccn4)Cc4ccccn4)cc(CN(Cc4ccccn4)Cc4ccccn4)c3)cc1)[C@]1(C)O[C@H]1[C@H](C)[C@@H]1C[C@@](O)(NC(=O)O1)[C@H](OC)/C=C\C=C(/C)C2.O=[N+]([O-])[O-].O=[N+]([O-])[O-].O=[N+]([O-])[O-].O=[N+]([O-])[O-].[Zn+2].[Zn+2]` [Compound 27b, (1S,2R,3S,5S,6S,16E,18Z,20R,21S)-11-Chloro-21-hydroxy-12,20-dimethoxy-2,5,9,16-tetramethyl-8,23-dioxo-4,24-dioxa-9,22-diazatetracyclo[19.3.1.1.^10,140^3,5]hexacosa-10(26),11,13,16,18-pentaen-6-yl (2S)-2-[{3-[(4-{[4-(3,5-bis{[bis(Pyridin-2-ylmethyl)amino]methyl}phenoxy)butyl]carbamoyl}phenyl)disulfanyl]propanoyl}(methyl)amino]propanoate·2[Zn(NO3)2]], in data set [3], the “AUC(0-24 hr) Conjugate” value was 318 ng·h/mL, the CL is on record as 294 mL/min/kg, the Vss turned out to be 83 L/kg and the “AUC(0-24 hr) Drug” value is 216 ng·h/mL. Besides, in data set [4], the antitumor activity result is listed as “exhibited antitumor activities” and the “body weight change during treatment” value was “significant body weight loss”.

Consider `COc1cc2cc(c1Cl)N(C)C(=O)C[C@H](OC(=O)[C@H](C)N(C)C(=O)CCC(C)(C)S)[C@]1(C)O[C@H]1[C@H](C)[C@@H]1C[C@@](O)(NC(=O)O1)[C@H](OC)/C=C/C=C(\C)C2` [Compound 16, DM4], for which the IC50 in data set [5] is 30 ± 3 nM; in data set [6] it was 4 nM; in data set [7] it was greater than 20 µM.

Regarding `COc1cc2cc(c1Cl)N(C)C(=O)CC(OC(=O)C(C)N(C)C(=O)CCSSCCC(=O)NCCCCOc1cc(CN(Cc3ccccn3)Cc3ccccn3)cc(CN(Cc3ccccn3)Cc3ccccn3)c1)C1(C)OC1C(C)C1CC(O)(NC(=O)O1)C(OC)C=CC=C(C)C2.O=[N+]([O-])[O-].O=[N+]([O-])[O-].O=[N+]([O-])[O-].O=[N+]([O-])[O-].[Zn+2].[Zn+2]` [Compound 27a, (1S,2R,3S,5S,6S,16E,18Z,20R,21S)-11-Chloro-21-hydroxy-12,20-dimethoxy-2,5,9,16-tetramethyl-8,23-dioxo-4,24-dioxa-9,22-diazatetracyclo[19.3.1.1.^10,140^3,5]hexacosa-10(26),11,13,16,18-pentaen-6-yl (2S)-2-[{3-[(3-{[4-(3,5-bis{[bis(Pyridin-2-ylmethyl)amino]methyl}phenoxy)butyl]amino}-3-oxopropyl)disulfanyl]propanoyl}(methyl)amino]propanoate·2[Zn(NO3)2]], in data set [3], the “AUC(0-24 hr) Conjugate” value is 7051 ng·h/mL, the CL is recorded as 11.5 mL/min/kg, the Vss was 2.6 L/kg and the “AUC(0-24 hr) Drug” value turned out to be 462 ng·h/mL. For the same molecule, in data set [4], the antitumor activity entry is reported as “exhibited antitumor activities” and the “body weight change during treatment” value is reported as “significant body weight loss”.

Regarding `COc1cc2cc(c1Cl)N(C)C(=O)C[C@H](OC(=O)[C@H](C)N(C)C(=O)CCS)[C@]1(C)O[C@H]1[C@H](C)[C@@H]1C[C@@](O)(NC(=O)O1)[C@H](OC)/C=C/C=C(\C)C2` [Compound 14, DM1], the half-maximal inhibitory concentration (IC50) in data set [5] was 74 ± 27 nM; in data set [6], 8 ± 3 nM; in data set [7] it was greater than 20 µM.

Regarding `CCCCCC(=O)Nc1cccc(CN(Cc2cc(CN(Cc3ccccn3)Cc3cccc(NC(=O)CCCCC)n3)cc(OCCCCNC(=O)CCSSCCC(=O)N(C)[C@@H](C)C(=O)O[C@H]3CC(=O)N(C)c4cc(cc(OC)c4Cl)C/C(C)=C/C=C\[C@@H](OC)[C@@]4(O)C[C@H](OC(=O)N4)[C@@H](C)[C@@H]4O[C@@]34C)c2)Cc2ccccn2)n1.O=[N+]([O-])[O-].O=[N+]([O-])[O-].O=[N+]([O-])[O-].O=[N+]([O-])[O-].[Zn+2].[Zn+2]` [Compound 33, (1S,2R,3S,5S,6S,16E,18Z,20R,21S)-11-Chloro-21-hydroxy-12,20-dimethoxy-2,5,9,16-tetramethyl-8,23-dioxo-4,24-dioxa-9,22-diazatetracyclo[19.3.1.1.^10,140^3,5]hexacosa-10(26),11,13,16,18-pentaen-6-yl (2S)-2-[{3-[(3-{[4-(3,5-bis{[{[6-(Hexanoylamino)pyridin-2-yl]methyl}(pyridin-2-ylmethyl)amino]methyl}phenoxy)butyl]amino}-3-oxopropyl)disulfanyl]propanoyl}(methyl)amino]propanoate·2[Zn(NO3)2]], in data set [3], the “AUC(0-24 hr) Conjugate” value amounted to 14379 ng·h/mL, the CL is listed as 6.8 mL/min/kg, the distribution volume (Vss) was found to be 0.5 L/kg and the “AUC(0-24 hr) Drug” value was 270 ng·h/mL. In data set [4], the antitumor activity entry is “exhibited antitumor activities” and the “body weight change during treatment” value is “significant body weight loss”.
